Biological target: gramicidin A (Bacillus brevis)
Experiment: single-channel electrophysiology on a planar lipid bilayer; gA in a free-standing DPhPC planar bilayer (painting method, n-decane); dimer (channel) lifetime recorded with an Axopatch amplifier for 30 min at 20 °C; lidocaine or tetracaine in the buffer at 1, 3, 6 and 10 mM; lifetime normalised to that without local anesthetic (tau/tau0); monomer to dimer

## gramicidin A (peptide)
  normalized dimer lifetime (tau/tau0) at 1 mM lidocaine: 1.33
  normalized dimer lifetime (tau/tau0) at 1 mM tetracaine: 1.88
  normalized dimer lifetime (tau/tau0) at 10 mM lidocaine: 3.66
  normalized dimer lifetime (tau/tau0) at 10 mM tetracaine: 6.85

From PMC8401255
